In patent publication US20130203659A1 (priority 2006, published 2013):
Where two headings read alike, the source gives them in different places. Positions of bridges follow the written chain, without caps; N, C: chain ends. Residues, ends and D or L forms follow the SMILES beside them. No end group written: not given here. branched PEG 40 kDa = branched polyethylene glycol of 40 kDa

How the values were obtained:
human GLP-1 receptor [1] = biological target: T1, human GLP-1 receptor (Homo sapiens, UniProt P43220); assay: GLP-1R reporter assay (cAMP-regulated luciferase, CHOK1 cells), human receptor; format: cell-based
T1 construct: expressed in transfected cells; host or cells: CHOK1 cells with a cAMP-regulated luciferase reporter construct
Procedure: A. GLP-1R Reporter Assay:
Increased cAMP levels were measured through enhanced expression of a luciferase reporter gene. […] The evening prior to assay, the cells were washed, the medium replaced with serum-free medium containing 0.5% protease-free bovine serum albumin (BSA), and then cultured overnight. […] Cell lysates were assayed for luciferase activity using the Luciferase Assay System (Promega Corporation, Madison, Wis.). Luciferase activity was measured using a Luminoskan Ascent (Thermo Electron Corporation, Marietta, Ohio). Nonlinear regression analyses of resultant compound concentration curves were performed using GraphPad Prism (GraphPad Software, Inc., San Diego, Calif.).

human GLP-1 receptor [2] = biological target: T1, human GLP-1 receptor; assay: In vitro GLP-1 receptor binding (125I-GLP-1 ligand binding assay), human receptor
Procedure: Cells were sedimented at 1500 rpm for 10 minutes. The resulting pellets were homogenized in 15 mls of ice cold sucrose buffer (25 mM Tris-HCl, 0.32 M Sucrose, 0.25 g/L sodium azide, pH 7.4) with a motorized, glass fitted, Teflon homogenizer. The homogenate was centrifuged at 48,000×g at 4° C. for 10 minutes, resuspended in 25 ml assay buffer (50 mM Tris-HCl, 5 mM MgCl2, 10 mg/ml protease-free BSA, 0.1 mg/ml STI, and 0.1 mg/ml Pefabloc, pH 7.4) with a Tissue-Tearor (Biospec Products), then centrifuged again at 48,000×g for 10 minutes. The pellets were homogenized for a third time in 15 ml assay buffer using the Tissue-Tearor and again centrifuged at 48,000×g for 10 minutes. The resulting pellet was resuspended in assay buffer at a wet weight concentration of 4 mg/ml.
Binding assays were performed in 96-well U-bottom plates. […] Bound radioactivity was determined using a TopCount microplate scintillation and luminescence counter (Packard Instrument Company, PerkinElmer, Shelton, Conn.). Nonlinear regression analyses of resulting concentration curves were performed using GraphPad Prism (GraphPad Software, Inc., San Diego, Calif.).

[3] = luciferase reporter, 6 hours exposure, read-out: EC50 human
[4] = membranes of CHOK1 cells expressing human GLP-1 receptor, 0.2 nM 125I-GLP-1

T1 sequence (P43220 24-463): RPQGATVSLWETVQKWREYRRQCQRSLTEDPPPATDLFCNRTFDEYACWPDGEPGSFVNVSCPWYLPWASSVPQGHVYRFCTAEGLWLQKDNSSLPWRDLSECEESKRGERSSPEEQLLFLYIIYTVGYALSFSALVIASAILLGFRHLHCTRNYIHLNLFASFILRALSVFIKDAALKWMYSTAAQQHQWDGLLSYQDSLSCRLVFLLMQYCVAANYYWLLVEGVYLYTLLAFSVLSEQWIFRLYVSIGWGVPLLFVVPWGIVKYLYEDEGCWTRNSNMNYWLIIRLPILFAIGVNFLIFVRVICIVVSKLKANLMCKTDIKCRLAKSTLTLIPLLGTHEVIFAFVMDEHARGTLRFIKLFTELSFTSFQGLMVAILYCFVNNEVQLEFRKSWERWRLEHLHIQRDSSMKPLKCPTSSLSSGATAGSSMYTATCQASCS

Molecule | EC50 (human GLP-1 receptor [1]) [nM] | IC50 (human GLP-1 receptor [2]) [nM] | EC50 (human GLP-1 receptor [1]; [3]) [nM] | IC50 (human GLP-1 receptor [2]; [4]) [nM]
CC[C@H](C)[C@H](NC(=O)[C@H](Cc1ccccc1)NC(=O)[C@H](CCC(=O)O)NC(=O)[C@@H]1CCC(=O)NCCCC[C@H](NC(=O)[C@H](CCC(=O)O)NC(=O)[C@H](CC(C)C)NC(=O)[C@H](Cc2ccc(O)cc2)NC(=O)[C@H](CO)NC(=O)[C@H](CO)NC(=O)[C@@H](NC(=O)[C@H](CC(=O)O)NC(=O)[C@H](CO)NC(=O)[C@@H](NC(=O)[C@H](Cc2ccccc2)NC(=O)[C@@H](NC(=O)CNC(=O)[C@H](CCC(=O)O)NC(=O)CNC(=O)[C@@H](N)Cc2c[nH]cn2)[C@@H](C)O)[C@@H](C)O)C(C)C)C(=O)N[C@@H](CCC(N)=O)C(=O)N[C@@H](C)C(=O)N[C@@H](C)C(=O)N1)C(=O)N[C@@H](C)C(=O)N[C@@H](Cc1c[nH]c2ccccc12)C(=O)N[C@@H](CC(C)C)C(=O)N[C@H](C(=O)N[C@@H](CCCCN)C(=O)NCC(=O)N[C@@H](CCCNC(=N)N)C(=O)NCC(N)=O)C(C)C [GLP1(7-37) cyclo[Lys16-Glu20], HGEGTFTSDVSSYLEKQAAEEFIAWLVKGRG AMIDE] (H-HGEGTFTSDVSSYLEKQAAEEFIAWLVKGRG-NH2; lactam 16-20) | 0.016 |  |  | 
CC[C@H](C)[C@H](NC(=O)[C@H](Cc1ccccc1)NC(=O)[C@H](CCC(=O)O)NC(=O)[C@H](CCCCN)NC(=O)[C@H](C)NC(=O)[C@H](C)NC(=O)[C@H](CCC(N)=O)NC(=O)CNC(=O)[C@H](CCC(=O)O)NC(=O)[C@H](CC(C)C)NC(=O)[C@H](Cc1ccc(O)cc1)NC(=O)[C@H](CO)NC(=O)[C@H](CO)NC(=O)[C@@H](NC(=O)[C@H](CC(=O)O)NC(=O)[C@H](CO)NC(=O)[C@@H](NC(=O)[C@H](Cc1ccccc1)NC(=O)[C@@H](NC(=O)CNC(=O)[C@H](CCC(=O)O)NC(=O)[C@H](C)NC(=O)[C@H](Cc1c[nH]cn1)NC(=O)[C@H](Cc1c[nH]cn1)NC(=O)[C@@H](N)CCSC)[C@@H](C)O)[C@@H](C)O)C(C)C)C(=O)N[C@@H](C)C(=O)N[C@@H](Cc1c[nH]c2ccccc12)C(=O)N[C@@H](CC(C)C)C(=O)N[C@H](C(=O)N[C@@H](CCCCN)C(=O)NCC(=O)N[C@@H](CCCNC(=N)N)C(=O)O)C(C)C [MH-GLP1, MH HAEGTFTSDVSSYLEGQAAKEFIAWLVKGR] |  | 350 |  | 
CC[C@H](C)[C@H](NC(=O)[C@H](Cc1ccccc1)NC(=O)[C@H](CCC(=O)O)NC(=O)[C@H](CCCCN)NC(=O)[C@H](C)NC(=O)[C@H](C)NC(=O)[C@H](CCC(N)=O)NC(=O)CNC(=O)[C@H](CCC(=O)O)NC(=O)[C@H](CC(C)C)NC(=O)[C@H](Cc1ccc(O)cc1)NC(=O)[C@H](CO)NC(=O)[C@H](CO)NC(=O)[C@@H](NC(=O)[C@H](CC(=O)O)NC(=O)[C@H](CO)NC(=O)[C@@H](NC(=O)[C@H](Cc1ccccc1)NC(=O)[C@@H](NC(=O)CNC(=O)[C@H](CCC(=O)O)NC(=O)[C@H](C)NC(=O)[C@H](Cc1c[nH]cn1)NC(=O)[C@H](CCCCN)NC(=O)[C@@H](N)CCSC)[C@@H](C)O)[C@@H](C)O)C(C)C)C(=O)N[C@@H](C)C(=O)N[C@@H](Cc1c[nH]c2ccccc12)C(=O)N[C@@H](CC(C)C)C(=O)N[C@H](C(=O)N[C@@H](CCCCN)C(=O)NCC(=O)N[C@@H](CCCNC(=N)N)C(=O)O)C(C)C [MK-GLP1, MK HAEGTFTSDVSSYLEGQAAKEFIAWLVKGR] |  |  | 4 | 
cgGLP-1: SEQ ID NO: 6 + 20K PEG (HGEGTFTSDVSSYLEGC(PEG 20 kDa)AAKEFIAWLVKGRG) |  |  | 12 | > 1000
cgGLP-2: SEQ ID NO: 6 + 40k branched PEG (HGEGTFTSDVSSYLEGC(branched PEG 40 kDa)AAKEFIAWLVKGRG) |  |  | 0.7 | > 1000
cgGLP-7: SEQ ID NO: 6 + 30k PEG (HGEGTFTSDVSSYLEGC(PEG 30 kDa)AAKEFIAWLVKGRG) |  |  |  | > 1000
cgGLP-13: SEQ ID NO: 8 + 20k PEG monomer (HGEGTFTSDVSSYLEGC(PEG 20 kDa)AAKEFIAWLKNGGPSSGAPPPS) |  |  | 1 | > 1000
